Measured values published in US20250262210A1 (TRUSTEES OF COLUMBIA UNIVERSITY IN THE CITY OF NEW YORK, published 2025).

Assays:
Assay in all cases: IP/MS, LZTR1 wild type-FLAG, U87
RUSC2 = RUSC2 (human, UniProt Q8N2Y8 1-1516)
Summary of the method: (§1)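 Extracted peptides in 3% acetonitrile/0.1% formic acid ran on a 50 cm C18 column into an Orbitrap Fusion, with MaxQuant identification and spectral counting.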

HECTD3 = target: T1, HECTD3 (human, UniProt Q5T447 2-861, limits assumed)
T1 sequence (looked up): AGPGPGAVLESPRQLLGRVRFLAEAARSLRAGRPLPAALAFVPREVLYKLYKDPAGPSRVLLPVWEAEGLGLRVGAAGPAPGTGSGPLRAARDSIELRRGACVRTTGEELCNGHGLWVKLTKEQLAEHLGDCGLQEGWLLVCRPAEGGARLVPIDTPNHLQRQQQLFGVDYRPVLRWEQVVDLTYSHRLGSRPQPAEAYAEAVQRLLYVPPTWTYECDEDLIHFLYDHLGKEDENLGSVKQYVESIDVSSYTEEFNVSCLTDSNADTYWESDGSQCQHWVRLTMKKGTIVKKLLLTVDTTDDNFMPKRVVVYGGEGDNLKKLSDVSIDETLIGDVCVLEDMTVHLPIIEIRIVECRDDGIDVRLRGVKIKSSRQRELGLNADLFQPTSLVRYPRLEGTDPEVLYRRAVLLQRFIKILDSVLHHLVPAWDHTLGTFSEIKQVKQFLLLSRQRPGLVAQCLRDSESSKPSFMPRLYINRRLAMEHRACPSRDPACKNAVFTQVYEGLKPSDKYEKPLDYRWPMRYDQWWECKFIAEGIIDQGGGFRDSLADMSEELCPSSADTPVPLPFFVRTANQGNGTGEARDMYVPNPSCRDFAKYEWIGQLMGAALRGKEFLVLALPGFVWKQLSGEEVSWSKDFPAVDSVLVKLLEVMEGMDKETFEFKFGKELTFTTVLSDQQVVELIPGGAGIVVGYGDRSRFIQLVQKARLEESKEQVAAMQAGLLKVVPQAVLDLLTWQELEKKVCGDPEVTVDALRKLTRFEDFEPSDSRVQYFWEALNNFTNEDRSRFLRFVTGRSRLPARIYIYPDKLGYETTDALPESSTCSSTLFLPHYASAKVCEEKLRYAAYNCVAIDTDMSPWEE
Summary of the method: as §1

ARHGAP31 = ARHGAP31 (human, UniProt Q2M1Z3 1-1444)
Chain of ARHGAP31 (Q2M1Z3 whole entry): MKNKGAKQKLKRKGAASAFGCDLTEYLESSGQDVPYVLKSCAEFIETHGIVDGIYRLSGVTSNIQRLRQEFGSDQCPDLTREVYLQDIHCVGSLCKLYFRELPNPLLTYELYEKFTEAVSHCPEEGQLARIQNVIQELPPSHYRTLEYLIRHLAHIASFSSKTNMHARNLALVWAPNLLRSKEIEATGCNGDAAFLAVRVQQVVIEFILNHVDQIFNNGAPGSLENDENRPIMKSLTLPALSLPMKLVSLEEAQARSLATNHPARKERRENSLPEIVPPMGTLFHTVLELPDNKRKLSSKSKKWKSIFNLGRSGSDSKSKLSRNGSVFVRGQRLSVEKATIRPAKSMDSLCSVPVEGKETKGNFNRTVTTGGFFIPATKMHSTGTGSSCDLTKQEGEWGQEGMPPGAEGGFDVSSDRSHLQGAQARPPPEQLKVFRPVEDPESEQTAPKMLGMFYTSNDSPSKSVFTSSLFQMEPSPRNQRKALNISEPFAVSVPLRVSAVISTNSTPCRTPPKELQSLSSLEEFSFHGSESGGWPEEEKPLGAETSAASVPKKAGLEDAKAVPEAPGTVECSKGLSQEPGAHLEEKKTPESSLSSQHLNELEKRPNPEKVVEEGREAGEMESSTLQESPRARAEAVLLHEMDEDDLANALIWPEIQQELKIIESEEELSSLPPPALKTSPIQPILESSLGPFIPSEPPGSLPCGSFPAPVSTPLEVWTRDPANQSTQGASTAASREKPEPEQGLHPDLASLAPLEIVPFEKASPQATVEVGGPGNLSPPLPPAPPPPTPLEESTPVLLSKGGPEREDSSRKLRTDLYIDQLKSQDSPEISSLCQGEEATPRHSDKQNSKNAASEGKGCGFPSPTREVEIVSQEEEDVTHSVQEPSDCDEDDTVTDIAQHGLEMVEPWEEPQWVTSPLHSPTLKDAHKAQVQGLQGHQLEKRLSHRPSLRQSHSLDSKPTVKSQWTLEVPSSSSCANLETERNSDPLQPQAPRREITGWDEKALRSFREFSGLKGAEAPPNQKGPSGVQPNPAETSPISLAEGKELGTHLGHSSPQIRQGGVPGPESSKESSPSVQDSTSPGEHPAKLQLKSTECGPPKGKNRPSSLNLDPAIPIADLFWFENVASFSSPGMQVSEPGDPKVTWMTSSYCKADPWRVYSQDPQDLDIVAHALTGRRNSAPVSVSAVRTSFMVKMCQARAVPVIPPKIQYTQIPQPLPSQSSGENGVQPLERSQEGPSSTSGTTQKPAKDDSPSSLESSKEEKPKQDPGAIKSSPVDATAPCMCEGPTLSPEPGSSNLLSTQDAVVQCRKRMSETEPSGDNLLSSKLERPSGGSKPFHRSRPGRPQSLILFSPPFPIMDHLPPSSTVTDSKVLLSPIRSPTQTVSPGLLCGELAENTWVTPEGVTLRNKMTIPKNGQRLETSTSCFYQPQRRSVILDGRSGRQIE
Summary of the method: as §1

CC2D1A = target: T2, CC2D1A (human, UniProt Q6P1N0 1-951, limits assumed)
T2 sequence (looked up): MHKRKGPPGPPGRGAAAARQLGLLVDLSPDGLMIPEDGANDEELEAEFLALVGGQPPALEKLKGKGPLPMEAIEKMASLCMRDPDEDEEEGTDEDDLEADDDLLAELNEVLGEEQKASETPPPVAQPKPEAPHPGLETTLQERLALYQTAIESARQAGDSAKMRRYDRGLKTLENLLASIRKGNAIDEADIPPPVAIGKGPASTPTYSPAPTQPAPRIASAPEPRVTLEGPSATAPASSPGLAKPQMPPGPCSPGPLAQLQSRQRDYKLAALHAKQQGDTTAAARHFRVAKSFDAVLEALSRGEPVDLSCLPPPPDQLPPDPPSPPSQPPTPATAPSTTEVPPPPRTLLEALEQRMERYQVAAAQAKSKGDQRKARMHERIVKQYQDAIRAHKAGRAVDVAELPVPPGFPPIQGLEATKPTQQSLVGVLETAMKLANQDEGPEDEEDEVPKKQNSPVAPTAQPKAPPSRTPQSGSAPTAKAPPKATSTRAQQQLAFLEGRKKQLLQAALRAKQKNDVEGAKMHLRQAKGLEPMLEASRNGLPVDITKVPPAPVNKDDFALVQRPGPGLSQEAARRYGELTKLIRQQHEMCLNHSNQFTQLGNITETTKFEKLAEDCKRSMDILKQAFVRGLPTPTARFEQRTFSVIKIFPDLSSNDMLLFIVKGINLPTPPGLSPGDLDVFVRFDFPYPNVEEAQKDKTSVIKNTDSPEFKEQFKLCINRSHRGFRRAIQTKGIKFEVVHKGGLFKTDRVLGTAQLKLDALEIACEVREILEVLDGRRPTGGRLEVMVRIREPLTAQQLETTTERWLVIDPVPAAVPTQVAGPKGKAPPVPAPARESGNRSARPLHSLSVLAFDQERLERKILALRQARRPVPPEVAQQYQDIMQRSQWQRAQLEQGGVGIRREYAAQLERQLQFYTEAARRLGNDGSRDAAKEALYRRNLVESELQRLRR
Summary of the method: as §1

SKIV2L = SKIV2L (human, UniProt Q15477 1-1246)
Chain of SKIV2L (Q15477 whole entry): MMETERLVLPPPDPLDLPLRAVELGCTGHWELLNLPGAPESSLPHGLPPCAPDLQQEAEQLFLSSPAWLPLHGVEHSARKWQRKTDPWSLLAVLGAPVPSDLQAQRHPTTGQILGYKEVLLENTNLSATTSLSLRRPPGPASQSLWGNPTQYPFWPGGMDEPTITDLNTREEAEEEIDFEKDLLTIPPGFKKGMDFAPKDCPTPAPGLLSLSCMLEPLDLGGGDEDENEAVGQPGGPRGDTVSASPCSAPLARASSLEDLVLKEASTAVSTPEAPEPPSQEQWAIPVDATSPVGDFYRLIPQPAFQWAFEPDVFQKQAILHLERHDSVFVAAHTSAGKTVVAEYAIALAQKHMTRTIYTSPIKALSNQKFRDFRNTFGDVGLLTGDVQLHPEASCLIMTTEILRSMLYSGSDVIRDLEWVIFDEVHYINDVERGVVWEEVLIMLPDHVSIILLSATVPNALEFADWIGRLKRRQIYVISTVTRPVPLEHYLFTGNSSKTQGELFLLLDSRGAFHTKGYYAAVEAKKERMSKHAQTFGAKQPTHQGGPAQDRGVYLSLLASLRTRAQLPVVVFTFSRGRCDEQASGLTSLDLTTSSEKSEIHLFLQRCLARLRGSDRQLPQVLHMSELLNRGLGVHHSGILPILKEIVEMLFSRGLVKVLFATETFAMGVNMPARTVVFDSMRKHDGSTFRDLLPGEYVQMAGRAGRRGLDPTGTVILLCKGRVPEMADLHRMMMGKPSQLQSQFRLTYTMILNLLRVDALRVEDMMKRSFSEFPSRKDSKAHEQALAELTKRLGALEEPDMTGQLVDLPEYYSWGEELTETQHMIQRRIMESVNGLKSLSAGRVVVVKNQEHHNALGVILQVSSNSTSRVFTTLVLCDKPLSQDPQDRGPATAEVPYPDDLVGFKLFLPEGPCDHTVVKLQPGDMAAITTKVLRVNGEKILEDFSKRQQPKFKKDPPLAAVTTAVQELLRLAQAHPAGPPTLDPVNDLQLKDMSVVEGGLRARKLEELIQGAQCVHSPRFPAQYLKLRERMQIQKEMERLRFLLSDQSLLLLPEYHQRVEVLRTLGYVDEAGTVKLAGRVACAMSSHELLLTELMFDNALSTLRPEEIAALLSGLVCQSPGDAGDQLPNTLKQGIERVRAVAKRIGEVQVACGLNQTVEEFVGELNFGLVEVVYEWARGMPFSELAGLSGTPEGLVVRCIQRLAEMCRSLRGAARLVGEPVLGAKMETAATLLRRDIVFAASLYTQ
Summary of the method: as §1

EPG5 = EPG5 (human, UniProt Q9HCE0 1-2579, limits assumed)
Summary of the method: as §1

Measured: binding result

Chain of RUSC2 (Q8N2Y8 whole entry, the tested form may be a part): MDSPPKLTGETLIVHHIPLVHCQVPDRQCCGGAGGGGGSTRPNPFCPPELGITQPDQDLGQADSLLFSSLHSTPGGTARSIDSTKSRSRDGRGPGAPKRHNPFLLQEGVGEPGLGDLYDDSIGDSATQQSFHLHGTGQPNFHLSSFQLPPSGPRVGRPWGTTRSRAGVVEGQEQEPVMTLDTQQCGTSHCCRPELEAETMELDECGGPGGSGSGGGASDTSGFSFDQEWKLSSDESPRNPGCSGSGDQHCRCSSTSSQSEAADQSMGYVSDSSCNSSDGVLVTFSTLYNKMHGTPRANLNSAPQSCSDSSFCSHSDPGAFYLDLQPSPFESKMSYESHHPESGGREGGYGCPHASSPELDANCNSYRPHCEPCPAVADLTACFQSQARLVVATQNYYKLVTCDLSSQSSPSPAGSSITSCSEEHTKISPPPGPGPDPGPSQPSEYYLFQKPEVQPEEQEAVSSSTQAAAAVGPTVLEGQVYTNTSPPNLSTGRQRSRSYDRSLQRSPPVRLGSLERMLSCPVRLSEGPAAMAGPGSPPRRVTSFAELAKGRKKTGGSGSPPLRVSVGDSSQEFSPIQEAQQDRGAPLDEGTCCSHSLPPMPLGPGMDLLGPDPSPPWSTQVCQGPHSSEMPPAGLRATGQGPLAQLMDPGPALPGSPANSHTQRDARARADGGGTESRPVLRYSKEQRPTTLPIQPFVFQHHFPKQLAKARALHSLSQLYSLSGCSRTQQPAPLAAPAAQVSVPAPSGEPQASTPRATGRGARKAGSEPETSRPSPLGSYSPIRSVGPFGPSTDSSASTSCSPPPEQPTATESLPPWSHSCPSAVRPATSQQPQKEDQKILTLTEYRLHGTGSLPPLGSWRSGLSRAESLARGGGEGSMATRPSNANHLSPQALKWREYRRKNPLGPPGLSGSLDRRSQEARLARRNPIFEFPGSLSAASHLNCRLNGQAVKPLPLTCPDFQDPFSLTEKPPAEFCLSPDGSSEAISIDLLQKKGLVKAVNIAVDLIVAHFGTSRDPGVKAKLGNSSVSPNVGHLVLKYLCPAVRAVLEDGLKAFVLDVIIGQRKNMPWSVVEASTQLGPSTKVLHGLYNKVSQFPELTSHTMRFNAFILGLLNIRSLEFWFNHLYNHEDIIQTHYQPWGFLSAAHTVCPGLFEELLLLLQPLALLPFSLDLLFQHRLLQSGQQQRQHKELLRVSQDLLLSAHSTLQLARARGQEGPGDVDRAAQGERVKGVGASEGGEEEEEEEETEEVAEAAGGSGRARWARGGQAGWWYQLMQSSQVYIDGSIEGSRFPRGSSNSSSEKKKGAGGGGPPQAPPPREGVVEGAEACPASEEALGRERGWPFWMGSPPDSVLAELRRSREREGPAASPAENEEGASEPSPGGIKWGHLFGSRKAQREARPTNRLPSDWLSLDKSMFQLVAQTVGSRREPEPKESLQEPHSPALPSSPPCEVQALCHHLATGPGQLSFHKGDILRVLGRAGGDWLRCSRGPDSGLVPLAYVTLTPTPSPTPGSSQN

B1: LZTR1-FLAG (other, human, UniProt Q8N653 1-840, looked up)
chain: MAGPGSTGGQIGAAALAGGARSKVAPSVDFDHSCSDSVEYLTLNFGPFETVHRWRRLPPCDEFVGARRSKHTVVAYKDAIYVFGGDNGKTMLNDLLRFDVKDCSWCRAFTTGTPPAPRYHHSAVVYGSSMFVFGGYTGDIYSNSNLKNKNDLFEYKFATGQWTEWKIEGRLPVARSAHGATVYSDKLWIFAGYDGNARLNDMWTIGLQDRELTCWEEVAQSGEIPPSCCNFPVAVCRDKMFVFSGQSGAKITNNLFQFEFKDKTWTRIPTEHLLRGSPPPPQRRYGHTMVAFDRHLYVFGGAADNTLPNELHCYDVDFQTWEVVQPSSDSEVGGAEVPERACASEEVPTLTYEERVGFKKSRDVFGLDFGTTSAKQPTQPASELPSGRLFHAAAVISDAMYIFGGTVDNNIRSGEMYRFQFSCYPKCTLHEDYGRLWESRQFCDVEFVLGEKEECVQGHVAIVTARSRWLRRKITQARERLAQKLEQEAAPVPREAPGVAAGGARPPLLHVAIREAEARPFEVLMQFLYTDKIKYPRKGHVEDVLLIMDVYKLALSFQLCRLEQLCRQYIEASVDLQNVLVVCESAARLQLSQLKEHCLNFVVKESHFNQVIMMKEFERLSSPLIVEIVRRKQQPPPRTPLDQPVDIGTSLIQDMKAYLEGAGAEFCDITLLLDGHPRPAHKAILAARSSYFEAMFRSFMPEDGQVNISIGEMVPSRQAFESMLRYIYYGEVNMPPEDSLYLFAAPYYYGFYNNRLQAYCKQNLEMNVTVQNVLQILEAADKTQALDMKRHCLHIIVHQFTKVSKLPTLRSLSQQLLLDIIDSLASHISDKQCAELGADI
notes: Expressed in HEK 293T, HeLa or U87 cells; used as cell lysate; also called LZTR1 wild type-FLAG; LZTR1 WT; not shown: FLAG tag at the C-terminus
binds: all assays above
